According to US20050202000:
Substitutions are numbered along the chain they refer to. “And” between values parts separate entries of the source, which are not always exact repeats. Equal entries are not always repeated.

B1: KGD-Sak · plasmin complex (protein)
chain 1: SSSFDKGKYKKGDDASYFEPTGPTLMVNVTGVDGKRNELLSPRYVEFPIKPGTTLTKEKIEYYVEWALDATAYKEFRVVELDPSAKIEVTYYDKNKKKEETKSFPITEKGDVVPDLSEHIKNPGFNLITKVVIEKK
chain 2: KVYLSECKTGNGKNYRGTMSKTKNGITCQKWSSTSPHRPRFSPATHPSEGLEENYCRNPDNDPQGPWCYTTDPEKRYDYCDILECEEECMHCSGENYDGKISKTMSGLECQAWDSQSPHAHGYIPSKFPNKNLKKNYCRNPDRELRPWCFTTDPNKRWELCDIPRCTTPPPSSGPTYQCLKGTGENYRGNVAVTVSGHTCQHWSAQTPHTHNRTPENFPCKNLDENYCRNPDGKRAPWCHTTNSQVRWEYCKIPSCDSSPVSTEQLAPTAPPELTPVVQDCYHGDGQSYRGTSSTTTTGKKCQSWSSMTPHRHQKTPENYPNAGLTMNYCRNPDADKGPWCFTTDPSVRWEYCNLKKCSGTEASVVAPPPVVLLPDVETPSEEDCMFGNGKGYRGKRATTVTGTPCQDWAAQEPHRHSIFTPETNPRAGLEKNYCRNPDGDVGGPWCYTTNPRKLYDYCDVPQCAAPSFDCGKPQVEPKKCPGRVVGGCVAHPHSWPWQVSLRTRFGMHFCGGTLISPEWVLTAAHCLEKSPRPSSYKVILGAHQEVNLEPHVQEIEVSRLFLEPTRKDIALLKLSSPAVITDKVIPACLPSPNYVVADRTECFITGWGETQGTFGAGLLKEAQLPVIENKVCNRYEFLNGRVQSTELCAGHLAGGTDSCQGDSGGPLVCFEKDKYILQGVTSWGLGCARPNKPGVYVRVSRFVTWIEGVMRNN
B2: Sak · plasmin complex (protein)
chain 1: B1 chain 1 with T24Y, R36G, R43H, D111F
chain 2: B1 chain 2
B3: RGD-Sak · plasmin complex (protein)
chain 1: B1 chain 1 with K109R
chain 2: B1 chain 2

Target: T1, plasminogen, P00747
T1 chain: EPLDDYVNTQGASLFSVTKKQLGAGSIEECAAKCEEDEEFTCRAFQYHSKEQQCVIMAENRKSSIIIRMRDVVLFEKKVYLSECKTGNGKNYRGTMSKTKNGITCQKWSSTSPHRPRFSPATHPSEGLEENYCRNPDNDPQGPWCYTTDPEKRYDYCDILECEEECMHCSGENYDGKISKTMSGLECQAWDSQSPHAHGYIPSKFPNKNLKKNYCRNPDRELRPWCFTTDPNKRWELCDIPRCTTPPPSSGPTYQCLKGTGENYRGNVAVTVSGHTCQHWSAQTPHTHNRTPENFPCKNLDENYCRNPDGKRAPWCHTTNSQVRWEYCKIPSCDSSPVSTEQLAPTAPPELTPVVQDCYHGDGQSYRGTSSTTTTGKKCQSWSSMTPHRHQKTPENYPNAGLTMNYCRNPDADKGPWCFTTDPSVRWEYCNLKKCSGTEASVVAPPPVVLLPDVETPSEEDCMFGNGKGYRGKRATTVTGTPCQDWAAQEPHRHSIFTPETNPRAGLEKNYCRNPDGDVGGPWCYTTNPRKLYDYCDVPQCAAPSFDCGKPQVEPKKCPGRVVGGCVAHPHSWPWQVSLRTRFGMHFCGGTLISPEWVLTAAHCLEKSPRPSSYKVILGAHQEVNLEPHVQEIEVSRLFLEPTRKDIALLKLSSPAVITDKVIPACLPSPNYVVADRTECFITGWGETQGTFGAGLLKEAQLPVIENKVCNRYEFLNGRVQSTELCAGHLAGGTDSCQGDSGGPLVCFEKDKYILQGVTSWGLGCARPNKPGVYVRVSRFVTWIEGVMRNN

B1 and B3 are within 1.5-fold of each other in Kcat: 1.46 s⁻¹ for the first, 1.41 s⁻¹ for the second.

Compared with B1, B2 is higher in Kcat/Km: 0.1 for the first, 0.16 for the second.

B3 gave a Kcat/Km of 0.11.

B1 and B3 are within 1.5-fold of each other in Km: 14.1 µM for the first, 12.5 µM for the second.

With B2 the Kcat was 1.03 s⁻¹ and 1.06 s⁻¹.

For B2, the Km was 6.42 µM and 6.51 µM.
